Measured values: PMC5800945 (Journal of molecular biology, 2017)
Changes are numbered by the printed parent chain.

Target: histone chaperone Anti-silencing factor 1 (Asf1) (Saccharomyces cerevisiae S288c)
Test: crystal structure

histone chaperone Anti-silencing factor 1 (Asf1) (Saccharomyces cerevisiae S288c), sequence (P32447 2-154): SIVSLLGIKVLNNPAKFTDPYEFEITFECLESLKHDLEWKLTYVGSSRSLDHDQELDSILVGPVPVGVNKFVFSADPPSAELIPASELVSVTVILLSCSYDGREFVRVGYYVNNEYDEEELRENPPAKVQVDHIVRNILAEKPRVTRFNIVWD

B1: Fab1H (anti-Asf1 Fab, wild-type switch region) (Fab, V domains shown)
VH: EVQLVESGGGLVQPGGSLRLSCAASGFNVSYSSIHWVRQAPGKGLEWVAYIYPSSGYTSYADSVKGRFTISADTSKNTAYLQMNSLRAEDTAVYYCARSYSTKLAMDYWGQGTLVTVSS
VL: DIQMTQSPSSLSASVGDRVTITCRASQSVSSAVAWYQQKPGKAPKLLIYSASSLYSGVPSRFSGSRSGTDFTLTISSLQPEDFATYYCQQSQWYPITFGQGTKVEIK
B1: binds.

B2: Fab1H-FNQIKG (Fab, V domains shown)
VH: B1 VH with S118F, S119N
VL: B1 VL
B2: binds.

B3: Fab1H-VSRRLP (Fab, V domains shown)
VH: B1 VH with S118V
VL: B1 VL
B3: binds.
